Experimental findings from patent publication US20190016815A1 (TRACON PHARMACEUTICALS, published 2019) are described below.

For experiment [1], the target named is T1, human CD105 (R&D Systems Cat. No. 1097-EN) (human, UniProt P17813 26-586).
T1 construct: Bought protein, captured on the plate by mouse anti-human CD105 (Southern Biotechnologies 9811-01); also called human endoglin
T1 sequence (looked up): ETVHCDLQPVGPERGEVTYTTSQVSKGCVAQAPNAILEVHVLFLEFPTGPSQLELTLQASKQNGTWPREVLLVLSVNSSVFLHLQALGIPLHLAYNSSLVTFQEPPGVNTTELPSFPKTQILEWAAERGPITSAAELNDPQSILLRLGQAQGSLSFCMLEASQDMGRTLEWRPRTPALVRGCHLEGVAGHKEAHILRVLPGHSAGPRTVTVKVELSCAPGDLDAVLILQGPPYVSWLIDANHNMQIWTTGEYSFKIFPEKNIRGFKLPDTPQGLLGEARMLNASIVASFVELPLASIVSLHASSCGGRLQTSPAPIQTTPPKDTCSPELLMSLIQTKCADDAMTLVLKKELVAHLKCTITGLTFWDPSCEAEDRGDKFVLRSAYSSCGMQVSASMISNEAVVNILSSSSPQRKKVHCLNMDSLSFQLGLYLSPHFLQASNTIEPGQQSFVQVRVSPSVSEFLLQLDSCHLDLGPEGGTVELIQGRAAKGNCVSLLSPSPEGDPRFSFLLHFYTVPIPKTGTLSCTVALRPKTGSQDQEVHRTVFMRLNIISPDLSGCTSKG
Briefly: competition ELISA on captured human CD105; human BMP9 against biotinylated TRC205 (55 ng/ml). As to the method: (§1) After washing three times with PBST, a three-fold dilution series of either human BMP9 (R&D Systems Cat. No. 3209-BP-010) (413 nM to 0.56 nM), or unlabelled TRC205 antibody (40 nM to 0.05 nM) or a single concentration of an irrelevant antibody (66 nM) was mixed with a fixed concentration of biotinylated TRC205 antibody (55 ng/ml) and added to the plate. Following incubation for 1 hour at room temperature, the plate was washed three times with PBST and binding of the biotinylated TRC205 antibody was detected using streptavidin-HRP (Sigma Cat. No. 55512) and TMB substrate (Sigma Cat. No. T0440). OD450 nm values were measured on a Dynex MRX TCII plate reader.
(In general: In an ELISA, binding on a coated surface is turned into a signal by an enzyme label.)

In experiment [2] the target is T1, human CD105 (R&D Systems Cat. No. …). Briefly: competition ELISA on captured human CD105; unlabelled TRC205 against biotinylated TRC205 (55 ng/ml). Here is the method:
as §1

The target is the same in experiment [3]. As to the kind of experiment: competition ELISA on human CD105 captured on the plate (100 ng/ml); competitor: biotinylated chimeric anti-CD105 at 6.25 ng/ml; streptavidin-HRP, TMB, OD450. Here is the method:
FIGS. 6A-6F. Anti-CD105 competition ELISA with humanized and humanized/deimmunized antibodies. […] Binding was detected via streptavidin-HRP and TMB substrate. Absorbance (OD) at 450 nm was measured on a plate reader and this was plotted against the test antibody concentration. FIG. 6A provides the results from the chimeric control compared to VK1VH1, VK1VH2, VK2VH1 and VK2VH2. FIG. 6B provides the results from the chimeric control compared to VK1VH1, VK2AVH1A, VK2SAVH1Q, VK2SAVH1R and VK2SAVH1S. FIG. 6C provides the results from the chimeric control compared to VK2AAVH1A2, VK2ASVH1A2, VK2ASVH1Q, VK2SSVH1A and VK2SSVH1Q. FIG. 6D provides the results from the chimeric control compared to VK2VH1, VK2AAVH1A, VK2AAVH1Q, VK2AAVH1R and VK2AAVH1S. FIG. 6E provides the results from the chimeric control compared to VK2VH1, VK2ASVH1A, VK2ASVH1R, VK2ASVH1S, and VK2SAVH1A2. FIG. 6F provides the results from the chimeric control compared to VK2VH1, VK2SSVH1Q, VK2SSVH1A2, VK2SSVH1R and VK2SSVH1S.
Antibodies were tested in a competition ELISA for binding to CD105 against biotinylated chimeric anti-CD105. Briefly, chimeric anti-CD105 was biotinylated using a micro-biotinylation kit (Sigma, Catalog No. BTAG-1KT) following the manufacturer's instructions. […] Binding of the biotinylated chimeric antibody was detected via streptavidin-HRP (Sigma, Catalog No. 55512) and TMB substrate (Sigma, Catalog No. T0440). OD450 nm values were measured on a Dynex MRX TCII plate reader. The results of the competition analysis are illustrated in FIG. 6.

Positions count from the first letter of the chain named.

B1: human BMP9 (R&D Systems Cat. No. 3209-BP-010) (ligand, UniProt Q9UK05 320-429, looked up)
chain: SAGAGSHCQKTSLRVNFEDIGWDSWIIAPKEYEAYECKGGCFFPLADDVTPTKHAIVQTLVHLKFPTKVGKACCVPTKLSPISVLYKDDMGVPTLKYHYEGMSVAECGCR
notes: Bought protein
On to B1, for which the IC50 in experiment [1] was found to be 0.35 µg/mL.

B2: TRC205 antibody (antibody, IgG4, V domains shown)
VH: EVQLVESGGGLVKPGGSLRLSCAASGFTFSDAWMDWVRQAPGKGLEWVGEARSKASNHATYYAESVKGRFTISRDDSKNTLYLQMNSLKTEDTAVYYCTRWRRFFDSWGQGTLVTVSS
VL: DIQMTQSPSSLSASVGDRATITCRASSSVSYMHWYQQKPGKAPKPWAYATSNLASGVPSRFSGSGSGTDYTLTISSLQPEDFATYYCQQWSSNPLTFGGGTKVEIK
notes: IgG4); Biotinylated with a Lightning-Link kit for the direct ELISA and as the labelled tracer; also called biotinylated TRC205; unlabelled TRC205
For the molecule B2, the IC50 in experiment [2] was 0.26 µg/mL.

B3: VK2SSVH1R (antibody, V domains shown)
VH: B2 VH with A51I, K54R
VL: B2 VL with M4L, A19V, T22S, A47I, T50S
B3: the binding result in experiment [3] is on record as “binds”.

B4: VK2ASVH1A (antibody, V domains shown)
VH: B2 VH with G49A, A51I
VL: B2 VL with M4L, A47I, T50S
With B4, the binding result in experiment [3] was “binds”.

B5: VK2ASVH1R (antibody, V domains shown)
VH: B2 VH with A51I, K54R
VL: B2 VL with M4L, A47I, T50S
On to B5, for which the binding result in experiment [3] was “binds”.

As usually defined, the IC50 is the concentration needed to halve the response being measured.
